# Laboratory results published in article PMC10397247.
# Read-outs that look alike come from different tables or passages of the source.
# T1: 4H491-bH
# T1 chain: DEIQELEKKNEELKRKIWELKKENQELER
# T2: 4H48-bH
# T2 chain: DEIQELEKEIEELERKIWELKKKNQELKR
# T3: O6-bP
# T3 chain: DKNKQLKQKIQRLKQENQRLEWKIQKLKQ
# T4: O9-bS
# T4 chain: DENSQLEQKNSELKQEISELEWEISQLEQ
# T5: O4-bS
# T5 chain: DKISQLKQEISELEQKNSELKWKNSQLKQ
# T6: O2-bS
# T6 chain: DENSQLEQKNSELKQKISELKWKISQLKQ
# T7: O6-bS
# T7 chain: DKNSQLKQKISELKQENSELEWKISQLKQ
# T8: O16-bS
# T8 chain: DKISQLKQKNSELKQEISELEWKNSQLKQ
# T9: O3-bS
# T9 chain: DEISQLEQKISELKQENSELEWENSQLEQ
# T10: O7-bS
# T10 chain: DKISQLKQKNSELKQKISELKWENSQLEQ
# T11: O15-bS
# T11 chain: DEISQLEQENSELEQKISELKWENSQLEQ
# T12: O8-bS
# T12 chain: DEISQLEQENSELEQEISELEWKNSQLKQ
# T13: O5-bS
# T13 chain: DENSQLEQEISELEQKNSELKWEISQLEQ
# T14: 4H342-bH
# T14 chain: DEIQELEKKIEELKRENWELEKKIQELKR
# T15: 4H496-bH
# T15 chain: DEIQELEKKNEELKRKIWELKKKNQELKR
# T16: 4H3632-bH
# T16 chain: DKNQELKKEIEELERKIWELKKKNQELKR
# T17: Q8-AA
# T17 chain: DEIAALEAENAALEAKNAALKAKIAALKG
# T18: Q7-AA
# T18 chain: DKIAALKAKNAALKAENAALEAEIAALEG
# T19: 4H1913-AA
# T19 chain: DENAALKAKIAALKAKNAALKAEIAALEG
# T20: 4H3049-AA
# T20 chain: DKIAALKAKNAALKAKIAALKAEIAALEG
# T21: 4H464-AA
# T21 chain: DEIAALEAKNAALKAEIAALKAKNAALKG
# T22: 4H1867-AA
# T22 chain: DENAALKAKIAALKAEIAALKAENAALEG
# T23: 4H249-AA
# T23 chain: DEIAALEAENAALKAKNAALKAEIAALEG
# T24: 4H3629-AA
# T24 chain: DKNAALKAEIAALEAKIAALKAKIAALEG
# T25: 4H2774-AA
# T25 chain: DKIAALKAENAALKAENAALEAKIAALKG
# T26: 4H3129-AA
# T26 chain: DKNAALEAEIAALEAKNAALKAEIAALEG
# T27: 4H2608-AA
# T27 chain: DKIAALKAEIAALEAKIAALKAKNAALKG
# T28: 4H1558-AA
# T28 chain: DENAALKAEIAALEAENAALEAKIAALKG
# T29: 4H3939-AA
# T29 chain: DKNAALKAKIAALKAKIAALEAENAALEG
# T30: 4H2621-AA
# T30 chain: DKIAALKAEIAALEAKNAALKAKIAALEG
# T31: 4H341-AA
# T31 chain: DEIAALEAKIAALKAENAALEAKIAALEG
# T32: 4H446-AA
# T32 chain: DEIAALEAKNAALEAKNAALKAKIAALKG
# T33: 4H3414-AA
# T33 chain: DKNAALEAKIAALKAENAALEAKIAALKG
# T34: 4H2728-AA
# T34 chain: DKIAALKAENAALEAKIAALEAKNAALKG
# T35: 4H3782-AA
# T35 chain: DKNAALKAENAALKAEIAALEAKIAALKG
# T36: 4H2903-AA
# T36 chain: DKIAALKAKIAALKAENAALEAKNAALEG
# T37: 4H380-AA
# T37 chain: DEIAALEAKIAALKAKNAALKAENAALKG
# T38: 4H2961-AA
# T38 chain: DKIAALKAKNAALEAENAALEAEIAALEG
# T39: 4H2699-AA
# T39 chain: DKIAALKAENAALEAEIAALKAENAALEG
# T40: 4H63-AA
# T40 chain: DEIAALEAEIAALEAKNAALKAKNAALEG
# T41: 4H483-AA
# T41 chain: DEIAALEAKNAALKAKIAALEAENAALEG
# T42: 4H3969-AA
# T42 chain: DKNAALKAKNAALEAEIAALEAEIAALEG
# T43: 4H3595-AA
# T43 chain: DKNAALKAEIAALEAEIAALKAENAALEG
# T44: 4H2580-AA
# T44 chain: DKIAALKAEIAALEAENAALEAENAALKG
# T45: 4H1804-bN
# T45 chain: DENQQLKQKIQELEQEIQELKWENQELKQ
# T46: 4H619-bN
# T46 chain: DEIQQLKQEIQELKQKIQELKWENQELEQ
# T47: 4H906-bN
# T47 chain: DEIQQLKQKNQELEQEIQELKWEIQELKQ
# T48: 4H3129-bN
# T48 chain: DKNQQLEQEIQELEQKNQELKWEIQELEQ
# T49: 4H3631-bN
# T49 chain: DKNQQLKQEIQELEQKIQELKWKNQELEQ
# T50: 4H570-bN
# T50 chain: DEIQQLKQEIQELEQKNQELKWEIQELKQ
# T51: 4H3414-bN
# T51 chain: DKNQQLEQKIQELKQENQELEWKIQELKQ
# T52: 4H1985-bN
# T52 chain: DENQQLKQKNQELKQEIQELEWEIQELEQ
# T53: 4H850-bN
# T53 chain: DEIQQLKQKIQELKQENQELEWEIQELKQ
# T54: 4H3817-bN
# T54 chain: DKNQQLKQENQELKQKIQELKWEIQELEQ
# T55: 4H3638-bN
# T55 chain: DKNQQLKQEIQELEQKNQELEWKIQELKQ
# T56: 4H584-bN
# T56 chain: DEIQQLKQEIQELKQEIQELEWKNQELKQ
# T57: 4H3172-bN
# T57 chain: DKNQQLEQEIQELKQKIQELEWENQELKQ
# T58: 4H3974-bN
# T58 chain: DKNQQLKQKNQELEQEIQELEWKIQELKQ
# Key:
# [1] = molecular target: T1, 4H491-bH; test: two-hybrid library CCNG1;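 note: natural log of median RNA to DNA barcode read ratio; higher means stronger binding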
# [2] = molecular target: T2, 4H48-bH; test: two-hybrid library CCNG1;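 note: natural log of median RNA to DNA barcode read ratio; higher means stronger binding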
# [3] = molecular target: T3, O6-bP; test: two-hybrid library CCNG1;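 note: natural log of median RNA to DNA barcode read ratio; higher means stronger binding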
# [4] = molecular target: T4, O9-bS; test: two-hybrid library CCNG1;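 note: natural log of median RNA to DNA barcode read ratio; higher means stronger binding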
# [5] = molecular target: T5, O4-bS; test: two-hybrid library CCNG1;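 note: natural log of median RNA to DNA barcode read ratio; higher means stronger binding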
# [6] = molecular target: T6, O2-bS; test: two-hybrid library CCNG1;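 note: natural log of median RNA to DNA barcode read ratio; higher means stronger binding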
# [7] = molecular target: T7, O6-bS; test: two-hybrid library CCNG1
# [8] = molecular target: T8, O16-bS; test: two-hybrid library CCNG1
# [9] = molecular target: T9, O3-bS; test: two-hybrid library CCNG1
# [10] = molecular target: T10, O7-bS; test: two-hybrid library CCNG1
# [11] = molecular target: T11, O15-bS; test: two-hybrid library CCNG1
# [12] = molecular target: T12, O8-bS; test: two-hybrid library CCNG1
# [13] = molecular target: T13, O5-bS; test: two-hybrid library CCNG1
# [14] = molecular target: T14, 4H342-bH; test: two-hybrid library CCNG1
# [15] = molecular target: T15, 4H496-bH; test: two-hybrid library CCNG1
# [16] = molecular target: T16, 4H3632-bH; test: two-hybrid library CCNG1
# [17] = molecular target: T17, Q8-AA; test: two-hybrid library CCmax; conditions: mean of both orientations
# [18] = molecular target: T18, Q7-AA; test: two-hybrid library CCmax
# [19] = molecular target: T19, 4H1913-AA; test: two-hybrid library CCmax; conditions: mean of both orientations
# [20] = molecular target: T20, 4H3049-AA; test: two-hybrid library CCmax; conditions: mean of both orientations
# [21] = molecular target: T21, 4H464-AA; test: two-hybrid library CCmax; conditions: mean of both orientations
# [22] = molecular target: T22, 4H1867-AA; test: two-hybrid library CCmax
# [23] = molecular target: T23, 4H249-AA; test: two-hybrid library CCmax; conditions: mean of both orientations
# [24] = molecular target: T24, 4H3629-AA; test: two-hybrid library CCmax; conditions: mean of both orientations
# [25] = molecular target: T25, 4H2774-AA; test: two-hybrid library CCmax; conditions: mean of both orientations
# [26] = molecular target: T26, 4H3129-AA; test: two-hybrid library CCmax; conditions: mean of both orientations
# [27] = molecular target: T27, 4H2608-AA; test: two-hybrid library CCmax
# [28] = molecular target: T28, 4H1558-AA; test: two-hybrid library CCmax
# [29] = molecular target: T29, 4H3939-AA; test: two-hybrid library CCmax; conditions: mean of both orientations
# [30] = molecular target: T30, 4H2621-AA; test: two-hybrid library CCmax; conditions: mean of both orientations
# [31] = molecular target: T31, 4H341-AA; test: two-hybrid library CCmax; conditions: mean of both orientations
# [32] = molecular target: T32, 4H446-AA; test: two-hybrid library CCmax; conditions: mean of both orientations
# [33] = molecular target: T33, 4H3414-AA; test: two-hybrid library CCmax; conditions: mean of both orientations
# [34] = molecular target: T34, 4H2728-AA; test: two-hybrid library CCmax; conditions: mean of both orientations
# [35] = molecular target: T35, 4H3782-AA; test: two-hybrid library CCmax; conditions: mean of both orientations
# [36] = molecular target: T36, 4H2903-AA; test: two-hybrid library CCmax; conditions: mean of both orientations
# [37] = molecular target: T37, 4H380-AA; test: two-hybrid library CCmax; conditions: mean of both orientations
# [38] = molecular target: T38, 4H2961-AA; test: two-hybrid library CCmax; conditions: mean of both orientations
# [39] = molecular target: T39, 4H2699-AA; test: two-hybrid library CCmax; conditions: mean of both orientations
# [40] = molecular target: T40, 4H63-AA; test: two-hybrid library CCmax; conditions: mean of both orientations
# [41] = molecular target: T41, 4H483-AA; test: two-hybrid library CCmax; conditions: mean of both orientations
# [42] = molecular target: T42, 4H3969-AA; test: two-hybrid library CCmax; conditions: mean of both orientations
# [43] = molecular target: T43, 4H3595-AA; test: two-hybrid library CCmax; conditions: mean of both orientations
# [44] = molecular target: T44, 4H2580-AA; test: two-hybrid library CCmax; conditions: mean of both orientations
# [45] = molecular target: T45, 4H1804-bN; test: two-hybrid library CCNG1
# [46] = molecular target: T46, 4H619-bN; test: two-hybrid library CCNG1
# [47] = molecular target: T47, 4H906-bN; test: two-hybrid library CCNG1
# [48] = molecular target: T48, 4H3129-bN; test: two-hybrid library CCNG1
# [49] = molecular target: T49, 4H3631-bN; test: two-hybrid library CCNG1
# [50] = molecular target: T50, 4H570-bN; test: two-hybrid library CCNG1
# [51] = molecular target: T51, 4H3414-bN; test: two-hybrid library CCNG1
# [52] = molecular target: T52, 4H1985-bN; test: two-hybrid library CCNG1
# [53] = molecular target: T53, 4H850-bN; test: two-hybrid library CCNG1
# [54] = molecular target: T54, 4H3817-bN; test: two-hybrid library CCNG1
# [55] = molecular target: T55, 4H3638-bN; test: two-hybrid library CCNG1
# [56] = molecular target: T56, 4H584-bN; test: two-hybrid library CCNG1
# [57] = molecular target: T57, 4H3172-bN; test: two-hybrid library CCNG1
# [58] = molecular target: T58, 4H3974-bN; test: two-hybrid library CCNG1
binder,measurement,setting,value
DEIQELEKEIEELERKIWELKKKNQELKR [4H48-bH],interaction score,[1],2.29
same,interaction score,[2],1.21
same,interaction score,[3],-0.138
DEISQLEQENSELEQKISELKWENSQLEQ [O15-bS],interaction score,[4],-0.877
same,interaction score,[5],-0.754
same,interaction score,[6],-0.919
same,interaction score,[7],-0.0139
same,interaction score,[8],1.93
same,interaction score,[9],-3.1
same,interaction score,[10],-0.978
same,interaction score,[11],-0.724
same,interaction score,[12],-1.05
same,interaction score,[13],-1.13
DEIQELEKKIEELKRENWELEKKIQELKR [4H342-bH],interaction score,[1],1.47
same,interaction score,[14],1.38
same,interaction score,[15],0.0247
same,interaction score,[2],-0.0388
same,interaction score,[16],1.55
DKIAALKAKNAALKAENAALEAEIAALEG [Q7-AA],interaction score,[17],2.38
same,interaction score,[18],-1.59
DENAALKAEIAALEAENAALEAKIAALKG [4H1558-AA],interaction score,[19],1.75
same,interaction score,[20],1.32
same,interaction score,[21],0.907
same,interaction score,[22],-1.23
same,interaction score,[23],1.51
same,interaction score,[24],0.444
same,interaction score,[25],-0.715
same,interaction score,[26],2.15
same,interaction score,[27],-1.1
same,interaction score,[28],0.452
same,interaction score,[29],-0.411
same,interaction score,[30],1.29
same,interaction score,[31],1.27
same,interaction score,[32],-0.543
same,interaction score,[33],1.1
same,interaction score,[34],-0.226
same,interaction score,[35],-0.467
same,interaction score,[36],-0.294
same,interaction score,[37],1.48
same,interaction score,[38],-1.19
same,interaction score,[39],-0.582
same,interaction score,[40],-0.799
same,interaction score,[41],0.272
same,interaction score,[42],-1.28
same,interaction score,[43],-1.53
same,interaction score,[44],-1.57
DEIAALEAEIAALEAENAALEAENAALEG [Q3-AA],interaction score,[17],-1.09
same,interaction score,[18]; mean of both orientations,-1.36
DENQQLKQKIQELEQEIQELKWENQELKQ [4H1804-bN],interaction score,[45],1.58
same,interaction score,[46],-1.34
same,interaction score,[47],-0.241
same,interaction score,[48],0.0855
same,interaction score,[49],0.112
same,interaction score,[50],-0.363
same,interaction score,[51],-0.563
same,interaction score,[52],0.201
same,interaction score,[53],0.194
same,interaction score,[54],-0.425
same,interaction score,[55],-0.805
same,interaction score,[56],0.249
same,interaction score,[57],-0.368
same,interaction score,[58],-1.87
